From patent US20150306193 come the findings set out here.

The data set addresses T1, purified mouse serpinB13 (GenScript) (UniProt Q8CDC0).
T1 sequence: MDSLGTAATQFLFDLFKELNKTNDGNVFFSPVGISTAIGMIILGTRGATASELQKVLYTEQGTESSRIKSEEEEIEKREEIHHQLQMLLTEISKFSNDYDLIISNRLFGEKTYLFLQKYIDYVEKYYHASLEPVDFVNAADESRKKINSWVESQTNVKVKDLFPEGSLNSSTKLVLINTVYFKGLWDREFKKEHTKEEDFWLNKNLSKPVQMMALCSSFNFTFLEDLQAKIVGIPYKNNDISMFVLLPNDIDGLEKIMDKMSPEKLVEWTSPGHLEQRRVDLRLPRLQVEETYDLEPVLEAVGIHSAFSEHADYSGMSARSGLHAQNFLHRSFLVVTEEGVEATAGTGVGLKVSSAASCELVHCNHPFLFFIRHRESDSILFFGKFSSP

As to Cathepsin L (Calbiochem), the “cleavage of (CBZ-Phe-Arg)2-R110 substrate by cathepsin L in the presence of serpinB13 (fold induction of maximum fluorescence over background)” value is “cathepsin L-mediated cleavage of the fluorescent substrate (CBZ-Phe-Arg)2-R110 from inhibition by serpinB13 in vitro”.
